Experimental data published in publication PMC4479010.

Target: GFP monomer (GFP 11 linked to the N terminus of GFP 1–10), net charge −3 [GFP: P42212]
Test: PAGE with 0.1% SDS + SEC; GFP oligomer mixture; SEC on Superdex 200 10/300 GL, 0.5 ml/min, 500 mM NaCl, 50 mM Tris pH 8.0 or PBS

percent of expressed monomers polymerized to oligomers above the dimer: 50%
Substance: GFP monomer (GFP 11 linked to the N terminus of GFP 1–10), net charge −3 (from UniProt P42212 215-230; P42212 1-214) (designed binder)
